# Positions count from the first letter of the chain named.
# B1: Ab22 (antibody, IgG4, V domains shown)
# VH: EVQLVESGGGLVQPGGSLRLSCAASGFTFGSFSMNWVRQAPGKGLEWVSYIHSDASTIYYADSVKGRFTISRDNAKNSLYLQMNSLRAEDTAVYYCARGVLDYGDMLDPWGQGTLVTVSS
# VL: DIQMTQSPSSLSASVGDRVTITCQASQDITNYLNWYQQKPGKAPKLLIYDASNLETGVPSRFSGSGSGTDFTFTISSLQPEDIATYYCQQADNHPPWTFGGGTKVEIK
# B2: Ab28 (antibody, V domains shown)
# VH: B1 VH with G30S, N35D, H52S, S53P, A97V
# VL: B1 VL
# B3: Ab31 (antibody, IgG4, V domains shown)
# VH: B1 VH with G30S, N35D, H52S, S53P, S78T, G99A
# VL: B1 VL
# B4: Ab27 (antibody, V domains shown)
# VH: B1 VH with G30S, S31F, F32Y, S33A, H52S, S53P
# VL: B1 VL
# B5: Ab24 (antibody, IgG4, V domains shown)
# VH: B1 VH with G16R, G30S, S33A, N35Y, H52S, S53P
# VL: B1 VL
# B6: Ab23 (antibody, V domains shown)
# VH: B1 VH with G30S, H52S, S53P, D54S, S56D, S78T
# VL: B1 VL
# B7: Ab32 (antibody, IgG4, V domains shown)
# VH: B1 VH with G30S, H52S, S53P, D54S, S56D, S78T, L101W, Y103M
# VL: B1 VL
# B8: Ab25 (antibody, V domains shown)
# VH: B1 VH with N35D, H52S, S53P
# VL: B1 VL
# B9: Ab30 (antibody, IgG4, V domains shown)
# VH: B1 VH with G30S, N35D, H52S, S53P, V100T
# VL: B1 VL
# B10: Ab26 (antibody, IgG4, V domains shown)
# VH: B1 VH with G30S, N35D, H52S, S53P, S78T
# VL: B1 VL
# B11: Ab21 (antibody, V domains shown)
# VH: B1 VH with G30S, N35D, H52S, S53P
# VL: B1 VL
# B12: Ab29 (antibody, IgG4, V domains shown)
# VH: B1 VH with G16R, G30S, S33A, H52S, S53P, D62G, A97V, G99A
# VL: B1 VL
# B13: Ab33 (antibody, IgG4, V domains shown)
# VH: B1 VH with G30S, H52S, S53P, D54S, S56D, S78T, R98H
# VL: B1 VL
# B14: Ab16 (antibody, V domains shown)
# VH: EVQLLESGGGLVQPGGSLRLSCAASGFTFSNYAMSWVRQAPGKGLEWVSAISGSGFTTYYADSVKGRFTISRDNSKNTLYLQMNSLRAEDTAVYYCARVSSGHWDFDYWGQGTLVTVSS
# VL: DIQLTQSPSSLSASVGDRVTITCRASQSISSYLNWYQQKPGKAPKLLIYAASNLQSGVPSRFSGSGSGTDFTLTISSLQPEDFATYYCQQTYTVPLTFGGGTKVEIK
# B15: Ab13 (antibody, V domains shown)
# VH: B14 VH with S30A, N31D, S35T, G53S, S54F, G55A, F56S, T57A, T58I
# VL: B14 VL with L4M, N53S, T91V, T93D, V94P
# B16: Ab8 (antibody, V domains shown)
# VH: B14 VH with E1Q, L5V, L11V, G16R, N31D, S35V
# VL: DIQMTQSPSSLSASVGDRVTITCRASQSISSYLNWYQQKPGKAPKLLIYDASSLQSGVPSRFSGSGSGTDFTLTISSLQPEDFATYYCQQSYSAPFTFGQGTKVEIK
# B17: Ab9 (antibody, V domains shown)
# VH: B14 VH with E1Q, L5V, L11V, N31S, Y32F, S35T, F56A, T57A, Y60F
# VL: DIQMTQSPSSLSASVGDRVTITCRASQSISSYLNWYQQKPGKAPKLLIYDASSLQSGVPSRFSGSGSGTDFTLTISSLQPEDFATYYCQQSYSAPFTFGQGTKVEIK
# B18: Ab10 (antibody, V domains shown)
# VH: B14 VH with S30R, A50S, F56G, T57A
# VL: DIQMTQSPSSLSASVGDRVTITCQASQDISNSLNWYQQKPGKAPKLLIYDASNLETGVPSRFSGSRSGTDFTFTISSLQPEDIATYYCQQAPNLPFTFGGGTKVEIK
# B19: Ab36 (antibody, V domains shown)
# VH: B14 VH with S30R, A50S, F56G, T57A, F106L
# VL: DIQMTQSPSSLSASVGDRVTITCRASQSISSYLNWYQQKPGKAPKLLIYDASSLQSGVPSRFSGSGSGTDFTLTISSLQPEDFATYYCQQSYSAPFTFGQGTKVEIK
# B20: Ab7 (antibody, V domains shown)
# VH: B14 VH with S30A, N31D, S35T, S54T, F56A, T57H
# VL: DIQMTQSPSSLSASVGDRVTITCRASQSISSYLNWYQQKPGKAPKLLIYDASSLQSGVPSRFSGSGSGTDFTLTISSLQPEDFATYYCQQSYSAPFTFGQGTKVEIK
# B21: Ab18 (antibody, V domains shown)
# VH: B14 VH with E1Q, L5V, L11V, G16R, N31D, S35V, F56A, T57A, Y60F, R98T
# VL: B14 VL
# B22: Ab17 (antibody, V domains shown)
# VH: B14 VH with L11V, N31S, Y32F, S35T, F56A, T57A, Y60F
# VL: B14 VL
# B23: Ab15 (antibody, V domains shown)
# VH: B14 VH with L5V, L11V, G16R, N31D, S35V
# VL: B14 VL
# B24: Ab14 (antibody, V domains shown)
# VH: B14 VH with N31A, S35T, S54T, F56G, T57S
# VL: B14 VL with L4M, N53S, T91V, T93D, V94P
# B25: Ab5 (antibody, V domains shown)
# VH: B1 VH with G30S, N35D, H52S, S53P
# VL: B1 VL
# B26: Ab1 (antibody, V domains shown)
# VH: B14 VH with S30R, A50S, F56G, T57A
# VL: DIQLTQSPSSLSASVGDRVTITCQASQDISNFLNWYQQKPGKAPKLLIYDASNLETGVPSRFSGSGSGTDFTFTISSLQPEDIATYYCQQVFNPPLTFGGGTKVEIK
# Target: T1, human GARP-proTGFβ1 complex (human, UniProt P01137 30-390; Q14392 20-627)
# T1 construct: also called hGARP-proTGFβ1; hGARP
# T1 sequence (P01137 30-390, chain 1 of 2): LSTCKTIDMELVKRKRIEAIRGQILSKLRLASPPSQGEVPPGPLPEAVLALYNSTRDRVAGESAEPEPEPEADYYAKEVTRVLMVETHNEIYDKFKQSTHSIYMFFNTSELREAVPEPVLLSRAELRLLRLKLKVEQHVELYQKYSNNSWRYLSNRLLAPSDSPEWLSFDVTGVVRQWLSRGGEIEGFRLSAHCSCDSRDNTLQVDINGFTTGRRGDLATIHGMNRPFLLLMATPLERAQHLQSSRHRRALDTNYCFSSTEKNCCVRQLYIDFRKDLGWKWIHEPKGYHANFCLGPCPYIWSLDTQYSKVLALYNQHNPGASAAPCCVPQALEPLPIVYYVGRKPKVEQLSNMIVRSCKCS
# T1 sequence (Q14392 20-627, chain 2 of 2): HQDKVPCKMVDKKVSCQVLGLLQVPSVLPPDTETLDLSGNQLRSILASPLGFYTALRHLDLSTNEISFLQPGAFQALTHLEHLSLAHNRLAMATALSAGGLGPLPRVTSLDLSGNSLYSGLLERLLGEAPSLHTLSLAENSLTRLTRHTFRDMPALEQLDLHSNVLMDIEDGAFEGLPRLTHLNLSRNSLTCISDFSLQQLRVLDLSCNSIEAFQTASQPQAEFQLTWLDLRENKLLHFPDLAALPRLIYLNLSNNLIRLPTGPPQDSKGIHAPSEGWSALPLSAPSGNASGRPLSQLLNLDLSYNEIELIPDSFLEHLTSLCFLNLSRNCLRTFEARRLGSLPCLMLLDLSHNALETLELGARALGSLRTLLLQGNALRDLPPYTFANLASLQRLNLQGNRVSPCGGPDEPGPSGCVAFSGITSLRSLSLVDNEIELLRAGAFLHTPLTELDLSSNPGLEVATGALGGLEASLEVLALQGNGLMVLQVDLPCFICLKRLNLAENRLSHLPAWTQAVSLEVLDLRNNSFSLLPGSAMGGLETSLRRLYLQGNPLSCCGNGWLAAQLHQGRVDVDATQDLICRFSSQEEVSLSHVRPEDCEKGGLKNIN
# Assay: BLI (Octet)
# Method: (§1) The affinity of anti-TGFβ1 antibodies was measured by Octet@ assay on human proTGFβ1 cells, while activity was measured by CAGA12 reporter cells testing human proTGFβ1 inhibition.
row,Kd,Binder
1,0.974 nM,B1
2,0.797 nM,B2
3,0.581 nM,B3
4,0.424 nM,B4
5,0.665 nM,B5
6,1.34 nM,B6
7,0.496 nM,B7
8,0.488 nM,B8
9,0.833 nM,B9
10,0.625 nM,B10
11,0.833 nM,B11
12,0.307 nM,B12
13,0.265 nM,B13
14,4.16 nM,B14
15,10 nM,B15
16,15.4 nM,B16
17,15.5 nM,B17
18,10.2 nM,B18
19,12.8 nM,B19
20,18 nM,B20
21,11.5 nM,B21
22,8.62 nM,B22
23,7.01 nM,B23
24,10.5 nM,B24

# Target: T2, human LRRC33-proTGFβ1 complex (human, UniProt P01137 30-390; Q86YC3 19-650)
# T2 construct: also called hLRRC33-proTGFβ1; hLRRC33
# T2 sequence (P01137 30-390 limits assumed, chain 1 of 2): as the sequence (P01137 30-390, chain 1 of 2) above
# T2 sequence (Q86YC3 other isoform, or with tags, fused parts or gaps limits assumed, chain 2 of 2): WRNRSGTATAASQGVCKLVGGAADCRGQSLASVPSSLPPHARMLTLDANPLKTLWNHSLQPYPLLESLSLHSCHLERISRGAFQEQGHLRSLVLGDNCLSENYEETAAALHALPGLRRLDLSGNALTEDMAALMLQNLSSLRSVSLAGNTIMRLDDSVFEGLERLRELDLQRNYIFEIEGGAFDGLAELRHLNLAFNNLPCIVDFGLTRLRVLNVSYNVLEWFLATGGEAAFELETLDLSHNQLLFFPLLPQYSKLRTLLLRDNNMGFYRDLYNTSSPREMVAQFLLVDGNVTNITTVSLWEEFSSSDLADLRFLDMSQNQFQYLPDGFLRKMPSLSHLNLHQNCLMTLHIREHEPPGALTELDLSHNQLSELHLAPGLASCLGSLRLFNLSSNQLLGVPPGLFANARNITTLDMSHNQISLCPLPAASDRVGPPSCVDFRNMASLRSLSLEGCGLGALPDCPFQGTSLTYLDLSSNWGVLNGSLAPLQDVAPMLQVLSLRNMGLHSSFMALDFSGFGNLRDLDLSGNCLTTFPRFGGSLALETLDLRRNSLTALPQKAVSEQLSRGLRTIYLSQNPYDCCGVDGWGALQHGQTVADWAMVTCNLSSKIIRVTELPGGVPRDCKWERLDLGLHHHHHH
# Assay: BLI (Octet)
# Method: as §1
row,Kd,Binder
1,0.415 nM,B1
2,0.409 nM,B2
3,0.41 nM,B3
4,0.299 nM,B4
5,0.41 nM,B5
6,0.455 nM,B6
7,0.698 nM,B7
8,0.409 nM,B8
9,0.535 nM,B9
10,0.36 nM,B10
11,0.455 nM,B11
12,0.302 nM,B12
13,0.339 nM,B13
14,0.631 nM,B14
15,1.4 nM,B15
16,10 nM,B16
17,1.3 nM,B17
18,1.06 nM,B18
19,1.42 nM,B19
20,10.3 nM,B20
21,1.02 nM,B21
22,0.658 nM,B22
23,0.702 nM,B23
24,1.34 nM,B24

# Target: T1, human GARP-proTGFβ1 complex
# Assay: MSD-SET, hIgG4
# Method: (§2) MSD-SET assays were performed to measure affinities of the antibodies at equilibrium. Briefly, each test antibody was diluted 3-5 fold and samples were mixed with biotinylated antigen in a 48-well dish. The SET samples were equilibrated for 20-24 hours at room temperature. Meanwhile, a capture plate was coated with IgG (20 nM) and incubated overnight at 4° C. or 30 minutes at room temperature, followed by a blocking step with 5% BSA. After the capture plate was washed three times, SET samples were added and incubated for 150 seconds. The plate was washed once to remove unbound complexes. 250 ng/ml SA-Sulfotag was added then washed 3 times. 2× Read Buffer was added, and signals from the labeled bound complexes were read with the use of QuickPlex™ SQ 120 instrument.
row,Kd,Binder
1,0.027 nM,B1
2,0.019 nM,B3
3,0.019 nM,B5
4,0.015 nM,B7
5,0.022 nM,B9
6,0.014 nM,B10
7,0.0055 nM,B12
8,0.0078 nM,B13

# Target: T2, human LRRC33-proTGFβ1 complex
# Assay: MSD-SET, hIgG4
# Method: as §2
row,Kd,Binder
1,0.2 nM,B1
2,0.096 nM,B3
3,0.18 nM,B5
4,0.087 nM,B7
5,0.14 nM,B9
6,0.13 nM,B10
7,0.043 nM,B12
8,0.046 nM,B13

# Target: hLTBP1-proTGFβ1 as produced in the cell-based activation assay (human, UniProt P01137 30-390; Q14766 347-1721)
# Assay: cell-based or functional assay
row,"IC50, reporter cell assay",Binder
1,1.29 nM,B25
2,0.835 nM,B6
3,6.08 nM,B8
4,0.713 nM,B10
5,1.61 nM,B11
6,0.471 nM,B12
7,1.56 nM,B13
8,14.5 nM,B26

# Target: hLTBP3-proTGFβ1 as produced in the cell-based activation assay (human, UniProt P01137 30-390; Q9NS15 44-1303)
# Sequence (P01137 30-390 limits assumed, chain 1 of 2): as the sequence (P01137 30-390, chain 1 of 2) above
# Sequence (Q9NS15 44-1303 limits assumed, chain 2 of 2): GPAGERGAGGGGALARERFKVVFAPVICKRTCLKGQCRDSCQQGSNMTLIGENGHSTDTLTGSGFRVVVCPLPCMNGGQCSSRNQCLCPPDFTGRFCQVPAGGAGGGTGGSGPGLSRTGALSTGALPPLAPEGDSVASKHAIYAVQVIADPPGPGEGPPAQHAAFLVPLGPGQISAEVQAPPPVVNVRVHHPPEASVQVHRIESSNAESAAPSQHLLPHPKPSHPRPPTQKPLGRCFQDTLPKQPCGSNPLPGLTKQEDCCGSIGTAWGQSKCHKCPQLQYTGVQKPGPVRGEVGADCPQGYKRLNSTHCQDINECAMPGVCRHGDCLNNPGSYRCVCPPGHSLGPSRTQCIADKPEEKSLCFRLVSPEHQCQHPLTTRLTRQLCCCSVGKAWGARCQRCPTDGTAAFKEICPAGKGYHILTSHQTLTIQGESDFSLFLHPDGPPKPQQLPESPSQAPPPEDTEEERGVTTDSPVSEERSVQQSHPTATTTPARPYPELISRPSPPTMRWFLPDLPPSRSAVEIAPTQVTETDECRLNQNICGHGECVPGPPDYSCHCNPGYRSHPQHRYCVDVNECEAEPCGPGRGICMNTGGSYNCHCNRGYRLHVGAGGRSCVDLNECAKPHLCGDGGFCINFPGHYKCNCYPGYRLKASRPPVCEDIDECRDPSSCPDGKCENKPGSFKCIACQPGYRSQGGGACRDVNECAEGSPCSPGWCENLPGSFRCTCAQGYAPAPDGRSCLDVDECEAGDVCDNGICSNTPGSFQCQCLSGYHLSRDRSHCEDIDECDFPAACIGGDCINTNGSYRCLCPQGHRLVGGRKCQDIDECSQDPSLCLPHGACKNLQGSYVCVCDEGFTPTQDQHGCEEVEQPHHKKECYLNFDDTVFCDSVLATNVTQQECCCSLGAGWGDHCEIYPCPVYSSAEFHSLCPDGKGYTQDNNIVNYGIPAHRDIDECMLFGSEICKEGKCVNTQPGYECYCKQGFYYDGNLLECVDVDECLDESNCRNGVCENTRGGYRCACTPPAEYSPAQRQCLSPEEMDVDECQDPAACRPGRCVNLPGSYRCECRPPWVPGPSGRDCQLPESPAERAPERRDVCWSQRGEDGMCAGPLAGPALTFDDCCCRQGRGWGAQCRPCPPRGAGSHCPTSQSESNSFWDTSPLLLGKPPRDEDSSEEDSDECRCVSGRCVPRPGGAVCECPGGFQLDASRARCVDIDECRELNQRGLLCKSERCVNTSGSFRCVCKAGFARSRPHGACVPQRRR
# Assay: cell-based or functional assay
row,"IC50, reporter cell assay",Binder
1,1 nM,B25
2,0.879 nM,B6
3,0.538 nM,B8
4,0.716 nM,B10
5,0.765 nM,B11
6,0.803 nM,B12
7,1.11 nM,B13
8,2.71 nM,B26

# Target: hGARP-proTGFβ1 presented on cells (human, UniProt P01137 30-390; Q14392 20-662)
# Sequence (P01137 30-390 limits assumed, chain 1 of 2): as the sequence (P01137 30-390, chain 1 of 2) above
# Sequence (Q14392 20-662 limits assumed, chain 2 of 2): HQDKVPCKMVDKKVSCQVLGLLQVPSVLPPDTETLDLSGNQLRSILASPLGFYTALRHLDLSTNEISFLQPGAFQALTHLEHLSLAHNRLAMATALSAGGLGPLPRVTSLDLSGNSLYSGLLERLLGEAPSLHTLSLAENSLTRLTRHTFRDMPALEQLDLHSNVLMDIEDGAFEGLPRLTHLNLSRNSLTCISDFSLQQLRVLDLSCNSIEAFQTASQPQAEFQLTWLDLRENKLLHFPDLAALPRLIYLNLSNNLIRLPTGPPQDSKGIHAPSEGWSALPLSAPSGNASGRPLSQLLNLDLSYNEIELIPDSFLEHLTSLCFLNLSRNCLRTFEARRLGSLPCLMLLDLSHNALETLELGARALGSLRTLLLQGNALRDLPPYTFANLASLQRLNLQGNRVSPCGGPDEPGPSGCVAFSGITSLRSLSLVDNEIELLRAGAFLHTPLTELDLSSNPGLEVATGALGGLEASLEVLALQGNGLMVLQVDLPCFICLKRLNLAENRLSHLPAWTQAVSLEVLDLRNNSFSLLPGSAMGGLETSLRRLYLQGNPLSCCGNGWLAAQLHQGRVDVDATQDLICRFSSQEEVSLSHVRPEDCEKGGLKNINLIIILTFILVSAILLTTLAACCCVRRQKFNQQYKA
# Assay: cell-based or functional assay
row,"IC50, reporter cell assay",Binder
1,0.14 nM,B25
2,0.264 nM,B6
3,0.442 nM,B8
4,0.262 nM,B10
5,0.401 nM,B11
6,0.264 nM,B12
7,0.198 nM,B13
8,3.71 nM,B26

# Target: hLRRC33-proTGFβ1 presented on cells (human, UniProt P01137 30-390; Q86YC3 19-692)
# Sequence (P01137 30-390 limits assumed, chain 1 of 2): as the sequence (P01137 30-390, chain 1 of 2) above
# Sequence (Q86YC3 19-692 limits assumed, chain 2 of 2): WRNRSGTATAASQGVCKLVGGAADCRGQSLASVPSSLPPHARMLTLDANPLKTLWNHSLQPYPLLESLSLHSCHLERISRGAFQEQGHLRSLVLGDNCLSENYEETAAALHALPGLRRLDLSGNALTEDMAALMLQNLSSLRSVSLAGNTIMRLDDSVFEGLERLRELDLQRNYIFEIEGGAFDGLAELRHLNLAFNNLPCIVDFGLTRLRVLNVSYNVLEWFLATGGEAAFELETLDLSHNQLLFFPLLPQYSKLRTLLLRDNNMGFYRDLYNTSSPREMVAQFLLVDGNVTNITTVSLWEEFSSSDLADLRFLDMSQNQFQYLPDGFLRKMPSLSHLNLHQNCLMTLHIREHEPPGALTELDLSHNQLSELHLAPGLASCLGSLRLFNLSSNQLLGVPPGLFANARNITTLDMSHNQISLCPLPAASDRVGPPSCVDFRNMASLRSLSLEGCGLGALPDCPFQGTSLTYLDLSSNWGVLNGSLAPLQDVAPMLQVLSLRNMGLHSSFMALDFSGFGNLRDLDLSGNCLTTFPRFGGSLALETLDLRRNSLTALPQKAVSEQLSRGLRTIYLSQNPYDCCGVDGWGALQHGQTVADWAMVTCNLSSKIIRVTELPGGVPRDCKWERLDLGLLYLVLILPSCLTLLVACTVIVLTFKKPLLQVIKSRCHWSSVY
# Assay: cell-based or functional assay
row,"IC50, reporter cell assay",Binder
1,0.616 nM,B25
2,0.579 nM,B6
3,0.653 nM,B8
4,0.341 nM,B10
5,0.596 nM,B11
6,0.458 nM,B12
7,0.738 nM,B13
8,5.37 nM,B26
